Columns and labels:
[1] = target: T1, human CSPG5 (human, UniProt O95196 31-566); assay: FACS on CSPG5/Expi293F cells
T1 construct: Full-length gene expressed on cell membrane (Expi293F, L929); also called human CSPG5/Expi293F cells; human CSPG5/L929#09
T1 sequence: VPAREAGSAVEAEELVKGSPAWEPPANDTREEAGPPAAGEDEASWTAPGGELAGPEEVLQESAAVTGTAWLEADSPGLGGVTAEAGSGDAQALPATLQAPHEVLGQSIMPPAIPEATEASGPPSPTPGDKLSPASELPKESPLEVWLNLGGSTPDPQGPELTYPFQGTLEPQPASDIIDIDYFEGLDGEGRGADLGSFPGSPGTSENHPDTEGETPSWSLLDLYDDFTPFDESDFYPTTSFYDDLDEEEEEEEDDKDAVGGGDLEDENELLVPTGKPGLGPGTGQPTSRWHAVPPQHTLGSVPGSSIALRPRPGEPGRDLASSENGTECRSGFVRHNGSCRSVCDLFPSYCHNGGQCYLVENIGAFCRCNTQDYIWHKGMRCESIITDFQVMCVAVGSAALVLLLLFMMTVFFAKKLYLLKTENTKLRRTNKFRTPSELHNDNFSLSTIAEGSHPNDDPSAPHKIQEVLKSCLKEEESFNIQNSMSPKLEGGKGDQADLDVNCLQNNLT
Experimental: (§1) Expi293F cells, human CSPG5/Expi293F cells, mouse CSPG5/Expi293F cells, and monkey CSPG5/Expi293F cells were separately suspended in Staining Buffer (SB) of PBS comprising 0.1% NaN₃ and 1% FBS and dispensed in a round-bottom 96-well plate (manufactured by Becton, Dickinson and Company). After centrifugation (2000 rpm, 4° C., 2 minutes), the supernatant was removed, and to the resulting pellet, 10 μg/mL of each antibody obtained in Example 2 was added to suspend the pellet, and the resulting suspension was left to stand for 30 minutes at ice temperature. After further centrifugation (2000 rpm, 4° C., 2 minutes), the supernatant was removed, and the resulting pellet was washed with SB, and thereafter, 1 μg/mL of an RPE fluorescently labeled goat anti-human antibody (manufactured by Southern Biotech, Inc.) was added thereto, and the resultant was incubated for 30 minutes at ice temperature. After washing with SB, the cells were suspended in SB, and the fluorescence intensity of each cell was measured using a flow cytometer FACS CANTO II (manufactured by Becton, Dickinson and Company). Note that as a negative control, 10 μg/mL of the anti-AVM antibody was used.

[2] = target: T2, monkey CSPG5 (monkey (rhesus monkey), UniProt O95196 31-566 (human entry)); assay: FACS on CSPG5/Expi293F cells
T2 construct: Full-length gene expressed on Expi293F cells; also called monkey CSPG5/Expi293F cells; rhesus monkey CSPG5
T2 chain: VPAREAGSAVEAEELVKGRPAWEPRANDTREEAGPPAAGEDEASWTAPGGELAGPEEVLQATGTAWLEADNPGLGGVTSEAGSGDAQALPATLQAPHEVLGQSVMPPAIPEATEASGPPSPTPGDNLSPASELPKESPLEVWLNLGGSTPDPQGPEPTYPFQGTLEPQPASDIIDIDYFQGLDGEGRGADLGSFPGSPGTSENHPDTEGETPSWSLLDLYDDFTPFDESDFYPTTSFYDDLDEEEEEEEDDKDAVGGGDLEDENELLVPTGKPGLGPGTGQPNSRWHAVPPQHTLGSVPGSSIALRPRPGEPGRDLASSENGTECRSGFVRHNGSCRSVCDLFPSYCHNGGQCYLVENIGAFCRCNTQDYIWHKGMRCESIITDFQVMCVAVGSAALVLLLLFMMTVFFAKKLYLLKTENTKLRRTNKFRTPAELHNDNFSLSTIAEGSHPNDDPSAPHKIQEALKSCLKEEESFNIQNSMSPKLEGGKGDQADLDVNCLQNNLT
Experimental: as §1

[3] = target: T3, mouse CSPG5 (mouse, UniProt Q71M36 31-566); assay: FACS on CSPG5/Expi293F cells
T3 construct: Full-length gene expressed on Expi293F cells; also called mouse CSPG5/Expi293F cells
T3 sequence: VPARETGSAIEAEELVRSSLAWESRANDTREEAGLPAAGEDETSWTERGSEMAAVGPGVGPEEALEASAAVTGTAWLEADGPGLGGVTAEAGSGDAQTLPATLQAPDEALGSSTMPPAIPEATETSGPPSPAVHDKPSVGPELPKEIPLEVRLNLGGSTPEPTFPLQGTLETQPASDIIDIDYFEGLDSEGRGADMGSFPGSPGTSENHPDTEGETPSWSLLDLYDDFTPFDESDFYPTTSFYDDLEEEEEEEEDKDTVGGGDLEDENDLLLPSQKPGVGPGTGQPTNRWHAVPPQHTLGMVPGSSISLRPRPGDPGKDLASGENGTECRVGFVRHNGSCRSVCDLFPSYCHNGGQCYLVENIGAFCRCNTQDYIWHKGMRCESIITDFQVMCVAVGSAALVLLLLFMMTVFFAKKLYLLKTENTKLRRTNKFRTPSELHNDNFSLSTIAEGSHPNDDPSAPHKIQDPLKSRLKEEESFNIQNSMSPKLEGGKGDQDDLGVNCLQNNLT
Experimental: as §1

[4] = target: mouse CSPG5-GST (mouse); assay: SPR Biacore T-100, antibody captured, mouse CSPG5-GST analyte
Experimental: The affinity of the anti-CSPG5 antibodies, the CSPG5202 IgG4PE(R409K), and the AVM IgG4PE(R409K) CSPG5202 dscFv produced in Example 2 for human CSPG5 and mouse CSPG5 was measured using Biacore T-100 (GE Healthcare).
Each of the antibodies was immobilized on a […] sensor chip using a Human antibody Capture kit, and the binding ability was evaluated using human CSPG5-GST and mouse CSPG5-GST produced in Example 4 as analytes. The obtained sensorgram was analyzed with BIA evaluation software, and the dissociation constant (KD value) was calculated.

[5] = target: T2, monkey CSPG5; assay: FACS, 10 µg/mL antibody, monkey CSPG5/Expi293F vs Expi293F
Experimental: as §1
(§2) The detection results were analyzed, and a mean fluorescence intensity (MFI) was calculated using a geometric mean. Further, with respect to the MFI when the concentration of each antibody was 10 μg/mL, the ratio of the MFI (mean fluorescence intensity ratio) between the human CSPG5/Expi293F cells and the Expi293F cells (parent cell line) was calculated. Also for the monkey CSPG5/Expi293F cells and the mouse CSPG5/Expi293F cells, the mean fluorescence intensity ratio relative to the Expi293F cells (parent cell line) was calculated by the same procedure, and the results are shown in Table 3.

[6] = target: T1, human CSPG5; assay: FACS, 10 µg/mL antibody, human CSPG5/Expi293F vs Expi293F
Experimental: as §1, §2

[7] = target: T3, mouse CSPG5; assay: FACS, 10 µg/mL antibody, mouse CSPG5/Expi293F vs Expi293F
Experimental: as §1, §2

B1: AVM IgG4PE(R409K) CSPG5202 dscFv (bispecific antibody)
heavy: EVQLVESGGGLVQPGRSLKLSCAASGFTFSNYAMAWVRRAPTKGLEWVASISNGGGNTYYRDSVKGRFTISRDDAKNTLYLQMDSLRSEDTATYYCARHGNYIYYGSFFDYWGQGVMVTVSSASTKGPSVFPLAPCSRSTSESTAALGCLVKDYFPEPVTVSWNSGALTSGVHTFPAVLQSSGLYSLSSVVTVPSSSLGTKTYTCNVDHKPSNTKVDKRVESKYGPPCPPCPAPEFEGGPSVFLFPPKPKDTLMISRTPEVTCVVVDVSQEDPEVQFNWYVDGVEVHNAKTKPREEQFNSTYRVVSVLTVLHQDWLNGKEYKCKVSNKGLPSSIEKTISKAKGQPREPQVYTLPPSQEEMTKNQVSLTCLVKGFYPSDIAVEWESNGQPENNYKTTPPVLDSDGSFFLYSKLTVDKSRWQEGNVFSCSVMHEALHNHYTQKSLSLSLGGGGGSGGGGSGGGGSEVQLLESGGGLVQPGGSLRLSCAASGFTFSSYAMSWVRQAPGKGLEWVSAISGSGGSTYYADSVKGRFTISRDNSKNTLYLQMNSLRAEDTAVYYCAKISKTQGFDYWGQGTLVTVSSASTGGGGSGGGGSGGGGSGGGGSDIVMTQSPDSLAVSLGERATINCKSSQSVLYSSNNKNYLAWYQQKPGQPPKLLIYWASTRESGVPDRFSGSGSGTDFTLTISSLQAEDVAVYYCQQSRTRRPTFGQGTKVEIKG
light: QFVLSQPNSVSTNLGSTVKLSCKRSTGNIGSNYVSWYQQHEGRSPTTMIYRDDKRPDGVPDRFSGSIDRSSDSALLTINNVQTEDEADYFCQSYSSGINIFGGGTKLTVLGQPKAAPSVTLFPPSSEELQANKATLVCLISDFYPGAVTVAWKADSSPVKAGVETTTPSKQSNNKYAASSYLSLTPEQWKSHRSYSCQVTHEGSTVEKTVAPTECS
notes: also called anti-AVM-IgG4-CSPG5 dscFv bispecific antibody
- binding result [1]: binds
- binding result [2]: binds
- binding result [3]: binds
- Kd [4]: ≤ 10 nM

B2: CSPG5168 scFv-hG4PE(R409K) (Fc fusion)
VH: EVQLVETGGALVQPGGSLRLSCAGSGFIFSKYEMTWVRQAPGKGLEWVSTIGSLGLKTFYTDSVKGRFTTSRDNSRDTLFLQMDNLRVEDTAIYFCVKGGIRRADYWGKGTLVTVSS
VL: EIVMTQSPATLSLSPGERATLSCRASQSVSSYLAWYQQKPGQAPRLLIYDASNRATGIPARFSGSGSGTDFTLTISSLEPEDFAVYYCQQRSNWPLTFGGGTKVEIK
notes: also called anti-CSPG5 scFv-Fc antibody
- Mean fluorescence intensity ratio [5]: 3.36 ratio to parent cell line
- Mean fluorescence intensity ratio [6]: 5.46 ratio to parent cell line
- Mean fluorescence intensity ratio [7]: 5.81 ratio to parent cell line
- Kd [4]: ≤ 10 nM

Source: patent US20210269548A1 (Kyowa Kirin, published 2021)
